In article PMC8996488 (Journal of molecular biology, 2021):

B2: RecC subunit of E. coli RecBCD (natural protein, UniProt P07648 1-1122, looked up)
chain: MLRVYHSNRLDVLEALMEFIVERERLDDPFEPEMILVQSTGMAQWLQMTLSQKFGIAANIDFPLPASFIWDMFVRVLPEIPKESAFNKQSMSWKLMTLLPQLLEREDFTLLRHYLTDDSDKRKLFQLSSKAADLFDQYLVYRPDWLAQWETGHLVEGLGEAQAWQAPLWKALVEYTHQLGQPRWHRANLYQRFIETLESATTCPPGLPSRVFICGISALPPVYLQALQALGKHIEIHLLFTNPCRYYWGDIKDPAYLAKLLTRQRRHSFEDRELPLFRDSENAGQLFNSDGEQDVGNPLLASWGKLGRDYIYLLSDLESSQELDAFVDVTPDNLLHNIQSDILELENRAVAGVNIEEFSRSDNKRPLDPLDSSITFHVCHSPQREVEVLHDRLLAMLEEDPTLTPRDIIVMVADIDSYSPFIQAVFGSAPADRYLPYAISDRRARQSHPVLEAFISLLSLPDSRFVSEDVLALLDVPVLAARFDITEEGLRYLRQWVNESGIRWGIDDDNVRELELPATGQHTWRFGLTRMLLGYAMESAQGEWQSVLPYDESSGLIAELVGHLASLLMQLNIWRRGLAQERPLEEWLPVCRDMLNAFFLPDAETEAAMTLIEQQWQAIIAEGLGAQYGDAVPLSLLRDELAQRLDQERISQRFLAGPVNICTLMPMRSIPFKVVCLLGMNDGVYPRQLAPLGFDLMSQKPKRGDRSRRDDDRYLFLEALISAQQKLYISYIGRSIQDNSERFPSVLVQELIDYIGQSHYLPGDEALNCDESEARVKAHLTCLHTRMPFDPQNYQPGERQSYAREWLPAASQAGKAHSEFVQPLPFTLPETVPLETLQRFWAHPVRAFFQMRLQVNFRTEDSEIPDTEPFILEGLSRYQINQQLLNALVEQDDAERLFRRFRAAGDLPYGAFGEIFWETQCQEMQQLADRVIACRQPGQSMEIDLACNGVQITGWLPQVQPDGLLRWRPSLLSVAQGMQLWLEHLVYCASGGNGESRLFLRKDGEWRFPPLAAEQALHYLSQLIEGYREGMSAPLLVLPESGGAWLKTCYDAQNDAMLDDDSTLQKARTKFLQAYEGNMMVRGEGDDIWYQRLWRQLTPETMEAIVEQSQRFLLPLFRFNQS

Legend:
[1] = target: B2; assay: AUC
[2] = target: T1, RecB subunit of E. coli RecBCD (134 kDa) (E. coli, UniProt P08394 1-1180); assay: AUC
T1 sequence (looked up): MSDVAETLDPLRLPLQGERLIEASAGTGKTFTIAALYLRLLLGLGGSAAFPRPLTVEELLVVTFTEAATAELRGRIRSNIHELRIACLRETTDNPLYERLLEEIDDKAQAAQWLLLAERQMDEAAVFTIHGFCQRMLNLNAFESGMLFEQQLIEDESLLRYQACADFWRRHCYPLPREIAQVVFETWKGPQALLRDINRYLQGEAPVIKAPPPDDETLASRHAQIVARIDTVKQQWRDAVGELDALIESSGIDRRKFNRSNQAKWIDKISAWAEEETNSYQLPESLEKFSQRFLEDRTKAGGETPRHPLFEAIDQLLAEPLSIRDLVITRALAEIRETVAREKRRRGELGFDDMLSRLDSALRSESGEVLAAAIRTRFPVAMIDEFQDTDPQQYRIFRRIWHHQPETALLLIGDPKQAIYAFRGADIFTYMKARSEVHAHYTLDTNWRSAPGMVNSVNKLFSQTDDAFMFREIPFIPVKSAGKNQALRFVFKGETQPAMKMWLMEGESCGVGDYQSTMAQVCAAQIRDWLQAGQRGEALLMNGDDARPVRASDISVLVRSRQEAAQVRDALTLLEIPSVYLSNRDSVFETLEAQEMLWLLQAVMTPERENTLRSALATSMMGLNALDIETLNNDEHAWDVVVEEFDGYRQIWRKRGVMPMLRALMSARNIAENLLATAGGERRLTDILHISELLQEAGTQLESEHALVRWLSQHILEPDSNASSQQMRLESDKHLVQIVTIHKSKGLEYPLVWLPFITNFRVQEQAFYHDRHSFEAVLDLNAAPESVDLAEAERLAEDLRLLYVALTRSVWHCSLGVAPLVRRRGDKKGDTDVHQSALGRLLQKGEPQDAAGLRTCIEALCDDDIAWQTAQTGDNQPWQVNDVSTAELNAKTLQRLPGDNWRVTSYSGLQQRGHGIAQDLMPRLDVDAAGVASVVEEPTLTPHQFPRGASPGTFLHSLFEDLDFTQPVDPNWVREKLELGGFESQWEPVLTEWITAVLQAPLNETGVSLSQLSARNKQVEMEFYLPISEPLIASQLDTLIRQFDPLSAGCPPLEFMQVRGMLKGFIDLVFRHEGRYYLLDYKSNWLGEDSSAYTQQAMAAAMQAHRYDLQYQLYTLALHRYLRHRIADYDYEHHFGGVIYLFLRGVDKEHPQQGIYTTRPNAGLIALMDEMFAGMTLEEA

B1: RecD subunit of E. coli RecBCD (enzyme, UniProt P04993 1-608, looked up)
chain: MKLQKQLLEAVEHKQLRPLDVQFALTVAGDEHPAVTLAAALLSHDAGEGHVCLPLSRLENNEASHPLLATCVSEIGELQNWEECLLASQAVSRGDEPTPMILCGDRLYLNRMWCNERTVARFFNEVNHAIEVDEALLAQTLDKLFPVSDEINWQKVAAAVALTRRISVISGGPGTGKTTTVAKLLAALIQMADGERCRIRLAAPTGKAAARLTESLGKALRQLPLTDEQKKRIPEDASTLHRLLGAQPGSQRLRHHAGNPLHLDVLVVDEASMIDLPMMSRLIDALPDHARVIFLGDRDQLASVEAGAVLGDICAYANAGFTAERARQLSRLTGTHVPAGTGTEAASLRDSLCLLQKSYRFGSDSGIGQLAAAINRGDKTAVKTVFQQDFTDIEKRLLQSGEDYIAMLEEALAGYGRYLDLLQARAEPDLIIQAFNEYQLLCALREGPFGVAGLNERIEQFMQQKRKIHRHPHSRWYEGRPVMIARNDSALGLFNGDIGIALDRGQGTRVWFAMPDGNIKSVQPSRLPEHETTWAMTVHKSQGSEFDHAALILPSQRTPVVTRELVYTAVTRARRRLSLYADERILSAAIATRTERRSGLAALFSSRE
B1: binds [1]; binds [2].

B2: binds [2].
